Experiment: yeast display, Sf9 membrane polyspecificity reagent, FACS + sequencing; frameworks hold sequencing errors
Method in brief: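 Nanobodies came from a synthetic yeast display library in Saccharomyces cerevisiae BJ5465, induced with galactose for 36–48 hours and stained for 1 hour at 4 °C with 10% biotinylated, detergent-solubilized Sf9 membrane reagent. Cells were enriched on streptavidin microbeads and then FACS-sorted, with low and high (top ~1%) gates set on anti-HA fluorescence for expression and streptavidin fluorescence for reagent binding. Each polyreactivity label reflects the gate a clone came from. Genes were amplified by colony PCR, sequenced by MiSeq 2 × 250 and filtered by CDR length.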

Row | Sequence | polyreactivity (PSR sort gate)
1 | QVQLVESGGGLVQAGGSLRLTCAASGSTLDYYAMGWYRQAPGKERELVAAITQSGASTYYADSVKGRFTISRDNAKNPVYLQMNSLKPEDTAVYYCAAEDYTIYGGEYDYWGQGTQVTVSS | low polyreactivity
2 | QVQLVESGGGLVQAGGSLRISCAASGRTFALNAMGWYRQAPGKERELVAAISSGGSTYYADSVKGRFTISRDNAKNTVYLQMNSLKPEDTAVYYCAKTSFKYRWSYPVISMDYWGQGTQVTVSS | high polyreactivity
3 | QVQLVESGAGLVQAGGSLRLSCAASGSILKKYGMGLSRQAPGKERELVARISKSGGSTFYADSVKGRFTISRDNAKNTVYLQMNSLKPEDTAVYYCATLKYPYATSQGYDYWGQGTQVTVSS | high polyreactivity
4 | QVQLVESGGGLVQAGGSLRLSCAASGSTISRNAMGWYRQAPGKERELVAAITSRSGRTYYADSVKGRFTISRDNAKNTVYLQMNSLKPEDTAVYYCAATVYQGAYTYQFYWGQGTQVTVSS | high polyreactivity
5 | QVQLVESGGGLVQAGGSLRLSCAASGFIFEMYAMGWYRQAHGKERELVAAISSSGDSTYYADSVKGRFTISRDNEKNTVYLQMNSLIPEDNAVYYCATECGYALYDYWGQGTQVTVSS | low polyreactivity
6 | QVQLVESGGGLVQAGGSLRLSCAASGFIFGYNAMGWYRQAPGKERELVAALDSGDSTYYADSVKGRFTLSRDNAKNTVYLQMNSLKPEDTAVYYCATDVTFVYDFGYFQFDYWGQGTQVTVSS | low polyreactivity
7 | QVQLVESGGGLVQAGGSLRLSCAASGRIFKVYAMGWYRQAPGKERELVAVITGGGSTNYADSVKGRFTISRDNAKNTVYLQMNSLKPEDTAVYYCATEGYGHGGETDGGVYSDLGYWGQGTQVTVSS | low polyreactivity
8 | QVQLVESGGGLVQAGGSLRLSCAASGRIFGYNAMGWYRQAPGKERELVATISSGGGTNYADSVKGRFTISRDNAKNTVYLQMNSLKPEDTAVYYCNARIVYYYKRYTRDYEYWGQGTQVTVSS | low polyreactivity
9 | QVQLVESGGGLVQAGGSLRLSCAAYGRTFWRNAMGWYRQAPGKEREWVAAISRSGDSTRYADSLKGRFTISRDNAKNTFYLQMNSLKPEDTAVYYCNKLGTRVYEMDYWGQGTQVTVSS | high polyreactivity
10 | QVQLVESGGGLVQAGGSLRLSCAASGRTFGYNAMGWNRQAPGKERELVAAINWSGASTYYADSVKGRFTISRDNAKNTVYFQMNSLKPADTAVYYCAADYSYIYGFDYWGQGTQVTVSS | low polyreactivity
11 | QVQLVESGGGLVQAGGSLRLSCAASGFIFWDYAMGCYRQAPGKERELVAAISDSGGDTYYADSVKGRFTLSRDNAKNTVYLQMNSLKPEDPAVYYRAADVELWVFRGQQYDYWGQGTQETVSS | low polyreactivity
12 | QVQLVESGGGLVQAGGSLRLSCADSGRIFATNAMGWYRHAPGKERELVATITRSAGRTYYADSVKGRFTISRDNAKNTVYLQMNSLKPEDTAVYYCAASYWDTERGYREYDYWGQGTQVTVSS | low polyreactivity
13 | QVQLVESGGGLVQAGGSLRLSCAASGINYVRYAMGWYRQAPGKEREFVAAITRNGGRTYYADSVKGRFTISRDNAKNTVYLQMNSLKPEDTAVYYCAAYPAYPGTLEMDYWGQGTQVTVSS | high polyreactivity
14 | QVQLVESGGRLVQAGGSLRLSCAASGSTFTYNAMGWYRQAPGKESELVASISSGTTTYYADSVKGRFTISRDNAKNTVYVQMNSLKPEDTAVYYCAFDSWSRVQGWLAHNYDYWGQGTQVTVSS | low polyreactivity
15 | QVQLVESGGGLVQAGGSLRLSCAASGSIFGINVMGWYRQAPGKERELVAAITSGTSTYYADSVKGRFTISRDNANNTVYLQMNSLKPEDTAVYYCAALWSSRYVVHPQWYDYWGQGTQVTVSS | low polyreactivity
16 | PVQLVESGGGLVQAGGSLRLSCAACGGIFPGNAMGWYRQAPGKVRELVATISYSGGSTYYADSVKGRLTISRDNAKNTVYLQMNSLKPEATAVYYCAARGYKPTRSRRTEYGYWGQGTQVTVSS | high polyreactivity

Row | Sequence | polyreactivity (PSR sort gate)
17 | QVQLVESGGGLVQAGGSGRLSCAASGSILPSYAMGWYRQAPGKERELVAAISRRGGSTYYADSVKGRFSISRDNAKNTVYLQMNSLKPEDTAVYYCAAGSYSGYDYWGQGTQVTVSS | low polyreactivity
18 | QVQLVESGGGLVQAGGSLRLSCAASGFTIAKYAMGWYRQAPGKERELVAAISSSGGRTYYADSVKGRFTISRDNAKNTVYLQMNSLKPEDTAVYYCAADFSGPFDYWGQGTQVTVSS | high polyreactivity
19 | QVQLVESGGGLVQAGGSLRLSCAASVSIFYEYTMGWYRQAPGKERELVADITEGDGITYYADSVKGRFTISRDNAKNTVYLQMNSLKPEDTAVYYCNADVVQAVTTHYDYWGQGTQVTVSS | low polyreactivity
20 | QVQLVESGGGLVQAGGSLRLSCAASGLIFYRYTMGWYRQAPGKERELVAAISRRGGSTFYADSVKGRFTISRDNAKNTVYLQMNSLKPEDTAVYYCAAASWYRRKIYYSWGQGTQVTVSS | high polyreactivity
21 | QVQLVDSGGGLVQAGGSLRLTFAASGSIFAWYAMGLYRQEPGKERELVAVITRGGSTNYADSVKGRFTISRDNAKNTVYLPMISQKPEDTAVYYCAAGSYYSWYPFDYWGQGTQLTVSS | low polyreactivity
22 | QVQLEESGGGLVQAGGSIRLSCAASGRTIVYNAMGWYRQAPGNERELVDAIDGGGDRTYYADSVKGRFTISRDNAKITVYLQMNRLKPEDTAVYYCARDPGDTYYYSYPEGDYWGQGTQVSVSS | low polyreactivity
23 | QVQLVESGGGLVQAGGSLRLSCAASGSIFYDYTMGWYRQAPGKERELVAAINSGGSTNYADSVKGRFTISRDNAKNTVYLQMNSLKPEDTAVYYCAAVRYNSRVSTTPSEMYYLGQGTQVTVSS | low polyreactivity
24 | QVQLVESGGGLVQAGGSLRLSCAASGFTFIGYAMGWYRQAPGKEREFVAAITSGGSTYYADSVKGRFTISRDNAKNTVYLQMNSLKPEDTAVYYCAARSVYTASYRRVWINPQLDYWGQGTQVTVSS | high polyreactivity
25 | QVQLLESGGGLVQAGGSLRLSCAASGSTFNVYAMGWYRQAPGKERELVAAINWSGGNTYYADSVKGRFTISRDNAKNTVYLQMNSLNPEDTAVDYCNADGFVGTPSVDYDYWGQGTQVTVSS | low polyreactivity
26 | QVQLQESVGLVQAGGLRLSCAASGSVSYQEAMGWYRQAPAKERELVATISFGANTNYADSVKGRFTISRDNAKNTVYLQMNCLKPEDTAVYYCAAESLFDDYYGYWGQGTQVTVSS | low polyreactivity
27 | QVQLVESGGGLVQAGGSLRLSCAASGRISRFYAMGWYRQAPGKERELVAGIRSGDSTNYADSVKGRFTISRDNAKNTVYLQMNSLKPEDTAVYYCAAVVFSDGRYGRANRMYYWGQGTQVTVSS | high polyreactivity
28 | QVQLVESGGGLFQAGGSHRLSCAASGRIFPSYAMGWYRQAPGTQRELVAAIPRGGASTYYADSVKGRFTISRDIAQNTVYLQMNSLKPEDTAVYYCAARRSYTYGRDYWGQGTQVTVSS | high polyreactivity
29 | QVPLVESGGGLVQAGGSLRLSCAASGRISGYYDMGWYRQAPGKERELVATITSDGGTNYADSVKGRFTISRDNAKNTVYLQMNSLKPEDTAVYYCAAYGWYTKWHFAFGYWGQGTQVTVSS | low polyreactivity
30 | QVQLVESGGGLVQAGGSLPLSSAASGRTFYPNAMGWYRQAPGNEREFVARISDSGGSTYYADSVKGRFTISRDNAKNTVYLQMNSLKPEDTAVYYCAADYGDPRVKEYDYWGQGTQVTVSS | low polyreactivity
31 | QVQLVESGGGLVQAGGSLRLSCVASGRTFGNNAMGWYRQAHGKERELVAAITSGGSTNYADSVKGCFTISRDNAKNTVYLQMNSLKPEDTAVYYCAAKQYRAGGGYWGQGSQVTVSS | high polyreactivity

— the nanobody polyreactivity screen of Harvey et al. (2022)
